# Laboratory results as given in patent US20140087995A1 (published 2014).
# Numbered stars: 1 amine (or outer) side, 2 acyl side, 3 side chain; on linkers, the order of the positions; unused ones are H or OH. Bridge positions count the residues as written; N and C are the ends. Side chains are listed from the residue outwards. Ends that are not written are not given here. * marks the point of attachment. C20 diacid = O=C(O)CCCCCCCCCCCCCCCCCCC(=O)*; γGlu = O=C(O)[C@H](CCC(=O)[*:2])N[*:1]; AEEA = NCCOCCOCC(=O)O
# T1: human calcitonin receptor (human, UniProt P30988 25-474)
# T1 sequence (looked up): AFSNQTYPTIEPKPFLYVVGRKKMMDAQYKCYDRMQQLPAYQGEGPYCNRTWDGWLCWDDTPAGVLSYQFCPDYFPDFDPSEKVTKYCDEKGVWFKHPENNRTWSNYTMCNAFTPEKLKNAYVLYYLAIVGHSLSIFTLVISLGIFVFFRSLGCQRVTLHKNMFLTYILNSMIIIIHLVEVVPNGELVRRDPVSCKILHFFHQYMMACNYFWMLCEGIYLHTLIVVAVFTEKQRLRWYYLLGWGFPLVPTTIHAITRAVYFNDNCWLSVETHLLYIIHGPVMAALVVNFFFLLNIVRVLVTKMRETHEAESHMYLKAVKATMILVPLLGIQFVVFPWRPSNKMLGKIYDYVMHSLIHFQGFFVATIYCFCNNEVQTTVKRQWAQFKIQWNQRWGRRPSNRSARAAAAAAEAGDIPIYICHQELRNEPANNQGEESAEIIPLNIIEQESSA
# Target: T1, human calcitonin receptor
# Experiment: cell-based or functional assay
row,hCTR funct. EC50 [nM],Binder
1,37.5,"K([AEEA-γGlu-C20 diacid])CNTATCATQRLAKFLRHSSPNFGAIPSSTPVGSNTY-NH2 (disulfide 2-7; N-terminus assumed; SMILES CC[C@H](C)[C@H](NC(=O)[C@H](C)NC(=O)CNC(=O)[C@H](Cc1ccccc1)NC(=O)[C@H](CC(N)=O)NC(=O)[C@@H]1CCCN1C(=O)[C@H](CO)NC(=O)[C@H](CO)NC(=O)[C@H](Cc1c[nH]cn1)NC(=O)[C@H](CCCNC(=N)N)NC(=O)[C@H](CC(C)C)NC(=O)[C@H](Cc1ccccc1)NC(=O)[C@H](CCCCN)NC(=O)[C@H](C)NC(=O)[C@H](CC(C)C)NC(=O)[C@H](CCCNC(=N)N)NC(=O)[C@H](CCC(N)=O)NC(=O)[C@@H](NC(=O)[C@H](C)NC(=O)[C@@H]1CSSC[C@H](NC(=O)[C@@H](N)CCCCNC(=O)COCCOCCNC(=O)CC[C@H](NC(=O)CCCCCCCCCCCCCCCCCCC(=O)O)C(=O)O)C(=O)N[C@@H](CC(N)=O)C(=O)N[C@@H]([C@@H](C)O)C(=O)N[C@@H](C)C(=O)N[C@@H]([C@@H](C)O)C(=O)N1)[C@@H](C)O)C(=O)N1CCC[C@H]1C(=O)N[C@@H](CO)C(=O)N[C@@H](CO)C(=O)N[C@H](C(=O)N1CCC[C@H]1C(=O)N[C@H](C(=O)NCC(=O)N[C@@H](CO)C(=O)N[C@@H](CC(N)=O)C(=O)N[C@H](C(=O)N[C@@H](Cc1ccc(O)cc1)C(N)=O)[C@@H](C)O)C(C)C)[C@@H](C)O, analogue of human amylin; also called compound 74)"
2,9.33,"K([γGlu-C20 diacid])CNTATCATQRLARFLRHSSPNFGAIPSSTNVGPNTY-NH2 (disulfide 2-7; N-terminus assumed; SMILES CC[C@H](C)[C@H](NC(=O)[C@H](C)NC(=O)CNC(=O)[C@H](Cc1ccccc1)NC(=O)[C@H](CC(N)=O)NC(=O)[C@@H]1CCCN1C(=O)[C@H](CO)NC(=O)[C@H](CO)NC(=O)[C@H](Cc1c[nH]cn1)NC(=O)[C@H](CCCNC(=N)N)NC(=O)[C@H](CC(C)C)NC(=O)[C@H](Cc1ccccc1)NC(=O)[C@H](CCCNC(=N)N)NC(=O)[C@H](C)NC(=O)[C@H](CC(C)C)NC(=O)[C@H](CCCNC(=N)N)NC(=O)[C@H](CCC(N)=O)NC(=O)[C@@H](NC(=O)[C@H](C)NC(=O)[C@@H]1CSSC[C@H](NC(=O)[C@@H](N)CCCCNC(=O)CC[C@H](NC(=O)CCCCCCCCCCCCCCCCCCC(=O)O)C(=O)O)C(=O)N[C@@H](CC(N)=O)C(=O)N[C@@H]([C@@H](C)O)C(=O)N[C@@H](C)C(=O)N[C@@H]([C@@H](C)O)C(=O)N1)[C@@H](C)O)C(=O)N1CCC[C@H]1C(=O)N[C@@H](CO)C(=O)N[C@@H](CO)C(=O)N[C@H](C(=O)N[C@@H](CC(N)=O)C(=O)N[C@H](C(=O)NCC(=O)N1CCC[C@H]1C(=O)N[C@@H](CC(N)=O)C(=O)N[C@H](C(=O)N[C@@H](Cc1ccc(O)cc1)C(N)=O)[C@@H](C)O)C(C)C)[C@@H](C)O, analogue of human amylin; also called compound 65)"
3,0.961,"K([AEEA-γGlu-C20 diacid])CNTATCATQRLASFLRHSSPNFGAIPSSTPVGSNTY-NH2 (disulfide 2-7; N-terminus assumed; SMILES CC[C@H](C)[C@H](NC(=O)[C@H](C)NC(=O)CNC(=O)[C@H](Cc1ccccc1)NC(=O)[C@H](CC(N)=O)NC(=O)[C@@H]1CCCN1C(=O)[C@H](CO)NC(=O)[C@H](CO)NC(=O)[C@H](Cc1c[nH]cn1)NC(=O)[C@H](CCCNC(=N)N)NC(=O)[C@H](CC(C)C)NC(=O)[C@H](Cc1ccccc1)NC(=O)[C@H](CO)NC(=O)[C@H](C)NC(=O)[C@H](CC(C)C)NC(=O)[C@H](CCCNC(=N)N)NC(=O)[C@H](CCC(N)=O)NC(=O)[C@@H](NC(=O)[C@H](C)NC(=O)[C@@H]1CSSC[C@H](NC(=O)[C@@H](N)CCCCNC(=O)COCCOCCNC(=O)CC[C@H](NC(=O)CCCCCCCCCCCCCCCCCCC(=O)O)C(=O)O)C(=O)N[C@@H](CC(N)=O)C(=O)N[C@@H]([C@@H](C)O)C(=O)N[C@@H](C)C(=O)N[C@@H]([C@@H](C)O)C(=O)N1)[C@@H](C)O)C(=O)N1CCC[C@H]1C(=O)N[C@@H](CO)C(=O)N[C@@H](CO)C(=O)N[C@H](C(=O)N1CCC[C@H]1C(=O)N[C@H](C(=O)NCC(=O)N[C@@H](CO)C(=O)N[C@@H](CC(N)=O)C(=O)N[C@H](C(=O)N[C@@H](Cc1ccc(O)cc1)C(N)=O)[C@@H](C)O)C(C)C)[C@@H](C)O, analogue of human amylin; also called compound 73)"
4,3,"K([γGlu-C20 diacid])CNTATCATQRLANFLRHSSPNFGAIPSSTNVGSETY-NH2 (disulfide 2-7; N-terminus assumed; SMILES CC[C@H](C)[C@H](NC(=O)[C@H](C)NC(=O)CNC(=O)[C@H](Cc1ccccc1)NC(=O)[C@H](CC(N)=O)NC(=O)[C@@H]1CCCN1C(=O)[C@H](CO)NC(=O)[C@H](CO)NC(=O)[C@H](Cc1c[nH]cn1)NC(=O)[C@H](CCCNC(=N)N)NC(=O)[C@H](CC(C)C)NC(=O)[C@H](Cc1ccccc1)NC(=O)[C@H](CC(N)=O)NC(=O)[C@H](C)NC(=O)[C@H](CC(C)C)NC(=O)[C@H](CCCNC(=N)N)NC(=O)[C@H](CCC(N)=O)NC(=O)[C@@H](NC(=O)[C@H](C)NC(=O)[C@@H]1CSSC[C@H](NC(=O)[C@@H](N)CCCCNC(=O)CC[C@H](NC(=O)CCCCCCCCCCCCCCCCCCC(=O)O)C(=O)O)C(=O)N[C@@H](CC(N)=O)C(=O)N[C@@H]([C@@H](C)O)C(=O)N[C@@H](C)C(=O)N[C@@H]([C@@H](C)O)C(=O)N1)[C@@H](C)O)C(=O)N1CCC[C@H]1C(=O)N[C@@H](CO)C(=O)N[C@@H](CO)C(=O)N[C@H](C(=O)N[C@@H](CC(N)=O)C(=O)N[C@H](C(=O)NCC(=O)N[C@@H](CO)C(=O)N[C@@H](CCC(=O)O)C(=O)N[C@H](C(=O)N[C@@H](Cc1ccc(O)cc1)C(N)=O)[C@@H](C)O)C(C)C)[C@@H](C)O, analogue of human amylin; also called compound 27) [N^ε1-[(4S)-4-carboxy-4-(19-carboxynonadecanoylamino)butanoyl]-[Arg17,Pro21,Pro27,Glu35]-h-amylin]"
5,5.13,"K([γGlu-C20 diacid])CNTATCATQRLARFLRHSSPNFGAIPSSTPVGSNTY-NH2 (disulfide 2-7; N-terminus assumed; SMILES CC[C@H](C)[C@H](NC(=O)[C@H](C)NC(=O)CNC(=O)[C@H](Cc1ccccc1)NC(=O)[C@H](CC(N)=O)NC(=O)[C@@H]1CCCN1C(=O)[C@H](CO)NC(=O)[C@H](CO)NC(=O)[C@H](Cc1c[nH]cn1)NC(=O)[C@H](CCCNC(=N)N)NC(=O)[C@H](CC(C)C)NC(=O)[C@H](Cc1ccccc1)NC(=O)[C@H](CCCNC(=N)N)NC(=O)[C@H](C)NC(=O)[C@H](CC(C)C)NC(=O)[C@H](CCCNC(=N)N)NC(=O)[C@H](CCC(N)=O)NC(=O)[C@@H](NC(=O)[C@H](C)NC(=O)[C@@H]1CSSC[C@H](NC(=O)[C@@H](N)CCCCNC(=O)CC[C@H](NC(=O)CCCCCCCCCCCCCCCCCCC(=O)O)C(=O)O)C(=O)N[C@@H](CC(N)=O)C(=O)N[C@@H]([C@@H](C)O)C(=O)N[C@@H](C)C(=O)N[C@@H]([C@@H](C)O)C(=O)N1)[C@@H](C)O)C(=O)N1CCC[C@H]1C(=O)N[C@@H](CO)C(=O)N[C@@H](CO)C(=O)N[C@H](C(=O)N1CCC[C@H]1C(=O)N[C@H](C(=O)NCC(=O)N[C@@H](CO)C(=O)N[C@@H](CC(N)=O)C(=O)N[C@H](C(=O)N[C@@H](Cc1ccc(O)cc1)C(N)=O)[C@@H](C)O)C(C)C)[C@@H](C)O, analogue of human amylin; also called compound 63)"
6,9.07,"K([AEEA-γGlu-C20 diacid])CNTATCATQRLATFLRHSSPNFGAIPSSTPVGSNTY-NH2 (disulfide 2-7; N-terminus assumed; SMILES CC[C@H](C)[C@H](NC(=O)[C@H](C)NC(=O)CNC(=O)[C@H](Cc1ccccc1)NC(=O)[C@H](CC(N)=O)NC(=O)[C@@H]1CCCN1C(=O)[C@H](CO)NC(=O)[C@H](CO)NC(=O)[C@H](Cc1c[nH]cn1)NC(=O)[C@H](CCCNC(=N)N)NC(=O)[C@H](CC(C)C)NC(=O)[C@H](Cc1ccccc1)NC(=O)[C@@H](NC(=O)[C@H](C)NC(=O)[C@H](CC(C)C)NC(=O)[C@H](CCCNC(=N)N)NC(=O)[C@H](CCC(N)=O)NC(=O)[C@@H](NC(=O)[C@H](C)NC(=O)[C@@H]1CSSC[C@H](NC(=O)[C@@H](N)CCCCNC(=O)COCCOCCNC(=O)CC[C@H](NC(=O)CCCCCCCCCCCCCCCCCCC(=O)O)C(=O)O)C(=O)N[C@@H](CC(N)=O)C(=O)N[C@@H]([C@@H](C)O)C(=O)N[C@@H](C)C(=O)N[C@@H]([C@@H](C)O)C(=O)N1)[C@@H](C)O)[C@@H](C)O)C(=O)N1CCC[C@H]1C(=O)N[C@@H](CO)C(=O)N[C@@H](CO)C(=O)N[C@H](C(=O)N1CCC[C@H]1C(=O)N[C@H](C(=O)NCC(=O)N[C@@H](CO)C(=O)N[C@@H](CC(N)=O)C(=O)N[C@H](C(=O)N[C@@H](Cc1ccc(O)cc1)C(N)=O)[C@@H](C)O)C(C)C)[C@@H](C)O, analogue of human amylin; also called compound 75)"
